The values below come from publication PMC10397247.

One experiment has as its target T1, 4H2750-AA.
T1 chain: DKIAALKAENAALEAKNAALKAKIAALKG
Put plainly: two-hybrid library CCmax.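 Also: natural log of median RNA to DNA barcode read ratio; higher means stronger binding.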 Particulars: mean of both orientations.

In a further experiment the target is T2, 4H895-AA.
T2 chain: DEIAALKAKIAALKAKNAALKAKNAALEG
Put plainly: two-hybrid library CCmax.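 Also: natural log of median RNA to DNA barcode read ratio; higher means stronger binding.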 Particulars: mean of both orientations.

The target in a further experiment is T3, 4H2600-AA.
T3 chain: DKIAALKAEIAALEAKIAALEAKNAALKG
The experiment in a line: two-hybrid library CCmax.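 Also: natural log of median RNA to DNA barcode read ratio; higher means stronger binding.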

Another experiment has as its target T4, 4H58-AA.
T4 chain: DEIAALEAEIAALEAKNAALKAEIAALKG
Put plainly: two-hybrid library CCmax.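 Also: natural log of median RNA to DNA barcode read ratio; higher means stronger binding.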 The following applies: mean of both orientations.

A further experiment deals with T5, 4H465-AA.
T5 chain: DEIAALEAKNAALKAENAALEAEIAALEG
Put plainly: two-hybrid library CCmax.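 Also: natural log of median RNA to DNA barcode read ratio; higher means stronger binding.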 The following applies: mean of both orientations.

In a further experiment the target is T6, 4H535-AA.
T6 chain: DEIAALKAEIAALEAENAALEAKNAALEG
Put plainly: two-hybrid library CCmax.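 Also: natural log of median RNA to DNA barcode read ratio; higher means stronger binding.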 Particulars: mean of both orientations.

Another experiment addresses T7, 4H3365-AA.
T7 chain: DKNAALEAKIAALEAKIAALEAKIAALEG
The experiment in a line: two-hybrid library CCmax. Particulars: mean of both orientations.

The next experiment concerns the target T8, 4H_BCR.
T8 chain: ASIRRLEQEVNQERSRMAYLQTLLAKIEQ
The experiment in a line: two-hybrid library CCmax. Particulars: mean of both orientations.

The target in the next experiment is T9, 4H3705-AA.
T9 chain: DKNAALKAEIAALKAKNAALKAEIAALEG
The experiment in a line: two-hybrid library CCmax. Particulars: mean of both orientations.

The target in the next experiment is T10, 4H486-AA.
T10 chain: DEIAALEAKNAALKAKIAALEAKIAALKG
Put plainly: two-hybrid library CCmax. Particulars: mean of both orientations.

The target in the next experiment is 4H_GCN4. Put plainly: two-hybrid library CCmax.
4H_GCN4, sequence (chain, as listed by the source): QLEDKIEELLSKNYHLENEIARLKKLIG
In the next experiment the target is T11, 4H3651-AA.
T11 chain: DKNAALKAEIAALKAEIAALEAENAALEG
The experiment in a line: two-hybrid library CCmax. The following applies: mean of both orientations.

Another experiment concerns the target T12, 4H2721-AA.
T12 chain: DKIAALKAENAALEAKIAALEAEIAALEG
The experiment in a line: two-hybrid library CCmax. Particulars: mean of both orientations.

A further experiment concerns the target GCN2_T. The experiment in a line: two-hybrid library CCmax.
Another experiment deals with T13, 4H3020-AA.
T13 chain: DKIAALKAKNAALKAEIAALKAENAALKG
Put plainly: two-hybrid library CCmax. Particulars: mean of both orientations.

The target in another experiment is T14, 4H2898-AA.
T14 chain: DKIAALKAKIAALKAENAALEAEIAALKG
Put plainly: two-hybrid library CCmax. Particulars: mean of both orientations.

The next experiment has as its target T15, 4H3782-AA.
T15 chain: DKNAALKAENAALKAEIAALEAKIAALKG
The experiment in a line: two-hybrid library CCmax. The following applies: mean of both orientations.

For another experiment, the target named is T16, 4H_APH.
T16 chain: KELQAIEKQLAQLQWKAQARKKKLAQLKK
The experiment in a line: two-hybrid library CCmax.

The next experiment has as its target T17, 4H355-AA.
T17 chain: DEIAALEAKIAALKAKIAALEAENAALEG
The experiment in a line: two-hybrid library CCmax. The following applies: mean of both orientations.

The target in another experiment is T18, 4H2588-bN.
T18 chain: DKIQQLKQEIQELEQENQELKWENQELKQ
The experiment in a line: two-hybrid library CCNG1.

The next experiment deals with T19, 4H2473-bN.
T19 chain: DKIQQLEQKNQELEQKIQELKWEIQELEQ
Put plainly: two-hybrid library CCNG1.

In another experiment the target is T20, 4H348-bN.
T20 chain: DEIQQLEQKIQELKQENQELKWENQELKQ
The experiment in a line: two-hybrid library CCNG1.

The target of a further experiment is T21, 4H40-bN.
T21 chain: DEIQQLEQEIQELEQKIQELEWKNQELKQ
The experiment in a line: two-hybrid library CCNG1.

The next experiment deals with T22, 4H492-bN.
T22 chain: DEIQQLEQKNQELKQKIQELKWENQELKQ
The experiment in a line: two-hybrid library CCNG1.

A further experiment addresses T23, 4H2915-bN.
T23 chain: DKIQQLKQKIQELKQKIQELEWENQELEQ
Put plainly: two-hybrid library CCNG1.

The next experiment addresses T24, 4H2692-bN.
T24 chain: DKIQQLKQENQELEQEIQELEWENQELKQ
The experiment in a line: two-hybrid library CCNG1.

A further experiment deals with T25, 4H477-bN.
T25 chain: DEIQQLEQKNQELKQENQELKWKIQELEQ
Put plainly: two-hybrid library CCNG1.

The target in the next experiment is T26, 4H3277-bN.
T26 chain: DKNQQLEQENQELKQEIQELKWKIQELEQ
Put plainly: two-hybrid library CCNG1.

For another experiment, the target named is T27, 4H319-bN.
T27 chain: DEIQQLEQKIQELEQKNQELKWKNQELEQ
Put plainly: two-hybrid library CCNG1.

The target of another experiment is T28, 4H2438-bN.
T28 chain: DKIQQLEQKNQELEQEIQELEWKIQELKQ
The experiment in a line: two-hybrid library CCNG1.

The target of another experiment is T29, 4H2717-bN.
T29 chain: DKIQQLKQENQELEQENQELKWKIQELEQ
The experiment in a line: two-hybrid library CCNG1.

The target of another experiment is T30, 4H3926-bH.
T30 chain: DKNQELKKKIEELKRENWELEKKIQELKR
The experiment in a line: two-hybrid library CCNG1.

For a further experiment, the target named is T31, 4H741-bN.
T31 chain: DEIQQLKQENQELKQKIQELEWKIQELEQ
The experiment in a line: two-hybrid library CCNG1.

Another experiment concerns the target T32, 4H2839-bN.
T32 chain: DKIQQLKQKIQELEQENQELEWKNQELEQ
Put plainly: two-hybrid library CCNG1.

In a further experiment the target is T33, 4H2503-bN.
T33 chain: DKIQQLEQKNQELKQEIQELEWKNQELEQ
The experiment in a line: two-hybrid library CCNG1.

The next experiment has as its target T34, 4H3057-bN.
T34 chain: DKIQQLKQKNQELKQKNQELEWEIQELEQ
The experiment in a line: two-hybrid library CCNG1.

B1: 4H2600-AA (peptide)
chain: DKIAALKAEIAALEAKIAALEAKNAALKG
On to B1, for which the interaction score with 4H2750-AA is -1.65; in the experiment with 4H895-AA, -0.393; with 4H2600-AA, 1.58; with 4H58-AA it was 0.179; in the experiment with 4H465-AA, -1.72; with 4H535-AA, -0.657. In addition, the interaction score with 4H3365-AA was -0.236; with 4H_BCR it was -1.4; in the experiment with 4H3705-AA, 0.21; with 4H486-AA, 0.497; with 4H_GCN4 it was -1.63; with 4H3651-AA, 0.646. For the same molecule, the interaction score was -0.793 with 4H2721-AA; -1.38 in the experiment with GCN2_T; -0.911 with 4H3020-AA; 0.0245 with 4H2898-AA; -1.12 with 4H3782-AA; -1.47 with 4H_APH. The molecule further returned an interaction score in the experiment with 4H355-AA of 2.12.

B2: 4H2438-bN (peptide)
chain: DKIQQLEQKNQELEQEIQELEWKIQELKQ
For the molecule B2, the interaction score was -0.403 with 4H2588-bN; 1.05 with 4H2473-bN; -1.05 with 4H348-bN; -0.693 in the experiment with 4H40-bN; 0.204 with 4H492-bN; 2 with 4H2915-bN. The interaction score is -1.41 in the experiment with 4H2692-bN; 0.509 in the experiment with 4H477-bN; -0.843 with 4H3277-bN; -0.63 in the experiment with 4H319-bN; 1.09 with 4H2438-bN; -0.613 with 4H2717-bN. Besides, the interaction score with 4H3926-bH was -4.14; with 4H741-bN, -0.278; in the experiment with 4H2839-bN it was -1.05; with 4H2503-bN, 0.452; with 4H3057-bN, 2.19.
